Test results as given in article PMC3097235.

B1: human tyrosinase: Δ2 (protein)
parent chain: MLLAVLYCLLWSFQTSAGHFPRACVSSKNLMEKECCPPWSGDRSPCGQLSGRGSCQNILLSNAPLGPQFPFTGVDDRESWPSVFYNRTCQCSGNFMGFNCGNCKFGFWGPNCTERRLLVRRNIFDLSAPEKDKFFAYLTLAKHTISSDYVIPIGTYGQMKNGSTPMFNDINIYDLFVWMHYYVSMDALLGGSEIWRDIDFAHEAPAFLPWHRLFLLRWEQEIQKLTGDENFTIPYWDWRDAEKCDICTDEYMGGQHPTNPNLLSPASFFSSWQIVCSRLEEYNSHQSLCNGTPEGPLRRNPGNHDKSRTPRLPSSADVEFCLSLTQYESGSMDKAANFSFRNTLEGFASPLTGIADASQSSMHNALHIYMNGTMSQVQGSANDPIFLLHHAFVDSIFEQWLRRHRPLQEVYPEANAPIGHNRESYMVPFIPLYRNGDFFISSKDLGYDYSYLQDSDPDSFQDYIKSYLEQASRIWSWLLGAAMVGAVLTALLAGLVSLLCRHKRKQLPEEKQPLLMEKEDYHSLYQSHL
B2: human tyrosinase: Δ3 (protein)
parent chain: MLLAVLYCLLWSFQTSAGHFPRACVSSKNLMEKECCPPWSGDRSPCGQLSGRGSCQNILLSNAPLGPQFPFTGVDDRESWPSVFYNRTCQCSGNFMGFNCGNCKFGFWGPNCTERRLLVRRNIFDLSAPEKDKFFAYLTLAKHTISSDYVIPIGTYGQMKNGSTPMFNDINIYDLFVWMHYYVSMDALLGGSEIWRDIDFAHEAPAFLPWHRLFLLRWEQEIQKLTGDENFTIPYWDWRDAEKCDICTDEYMGGQHPTNPNLLSPASFFSSWQIVCSRLEEYNSHQSLCNGTPEGPLRRNPGNHDKSRTPRLPSSADVEFCLSLTQYESGSMDKAANFSFRNTLEGFASPLTGIADASQSSMHNALHIYMNGTMSQVQGSANDPIFLLHHAFVDSIFEQWLRRHRPLQEVYPEANAPIGHNRESYMVPFIPLYRNGDFFISSKDLGYDYSYLQDSDPDSFQDYIKSYLEQASRIWSWLLGAAMVGAVLTALLAGLVSLLCRHKRKQLPEEKQPLLMEKEDYHSLYQSHL
B3: human tyrosinase: Δ6 (protein)
parent chain: MLLAVLYCLLWSFQTSAGHFPRACVSSKNLMEKECCPPWSGDRSPCGQLSGRGSCQNILLSNAPLGPQFPFTGVDDRESWPSVFYNRTCQCSGNFMGFNCGNCKFGFWGPNCTERRLLVRRNIFDLSAPEKDKFFAYLTLAKHTISSDYVIPIGTYGQMKNGSTPMFNDINIYDLFVWMHYYVSMDALLGGSEIWRDIDFAHEAPAFLPWHRLFLLRWEQEIQKLTGDENFTIPYWDWRDAEKCDICTDEYMGGQHPTNPNLLSPASFFSSWQIVCSRLEEYNSHQSLCNGTPEGPLRRNPGNHDKSRTPRLPSSADVEFCLSLTQYESGSMDKAANFSFRNTLEGFASPLTGIADASQSSMHNALHIYMNGTMSQVQGSANDPIFLLHHAFVDSIFEQWLRRHRPLQEVYPEANAPIGHNRESYMVPFIPLYRNGDFFISSKDLGYDYSYLQDSDPDSFQDYIKSYLEQASRIWSWLLGAAMVGAVLTALLAGLVSLLCRHKRKQLPEEKQPLLMEKEDYHSLYQSHL
B4: human tyrosinase: Δ7 (protein)
parent chain: MLLAVLYCLLWSFQTSAGHFPRACVSSKNLMEKECCPPWSGDRSPCGQLSGRGSCQNILLSNAPLGPQFPFTGVDDRESWPSVFYNRTCQCSGNFMGFNCGNCKFGFWGPNCTERRLLVRRNIFDLSAPEKDKFFAYLTLAKHTISSDYVIPIGTYGQMKNGSTPMFNDINIYDLFVWMHYYVSMDALLGGSEIWRDIDFAHEAPAFLPWHRLFLLRWEQEIQKLTGDENFTIPYWDWRDAEKCDICTDEYMGGQHPTNPNLLSPASFFSSWQIVCSRLEEYNSHQSLCNGTPEGPLRRNPGNHDKSRTPRLPSSADVEFCLSLTQYESGSMDKAANFSFRNTLEGFASPLTGIADASQSSMHNALHIYMNGTMSQVQGSANDPIFLLHHAFVDSIFEQWLRRHRPLQEVYPEANAPIGHNRESYMVPFIPLYRNGDFFISSKDLGYDYSYLQDSDPDSFQDYIKSYLEQASRIWSWLLGAAMVGAVLTALLAGLVSLLCRHKRKQLPEEKQPLLMEKEDYHSLYQSHL
B5: human tyrosinase: Δall (protein)
parent chain: MLLAVLYCLLWSFQTSAGHFPRACVSSKNLMEKECCPPWSGDRSPCGQLSGRGSCQNILLSNAPLGPQFPFTGVDDRESWPSVFYNRTCQCSGNFMGFNCGNCKFGFWGPNCTERRLLVRRNIFDLSAPEKDKFFAYLTLAKHTISSDYVIPIGTYGQMKNGSTPMFNDINIYDLFVWMHYYVSMDALLGGSEIWRDIDFAHEAPAFLPWHRLFLLRWEQEIQKLTGDENFTIPYWDWRDAEKCDICTDEYMGGQHPTNPNLLSPASFFSSWQIVCSRLEEYNSHQSLCNGTPEGPLRRNPGNHDKSRTPRLPSSADVEFCLSLTQYESGSMDKAANFSFRNTLEGFASPLTGIADASQSSMHNALHIYMNGTMSQVQGSANDPIFLLHHAFVDSIFEQWLRRHRPLQEVYPEANAPIGHNRESYMVPFIPLYRNGDFFISSKDLGYDYSYLQDSDPDSFQDYIKSYLEQASRIWSWLLGAAMVGAVLTALLAGLVSLLCRHKRKQLPEEKQPLLMEKEDYHSLYQSHL
B6: human tyrosinase: Δ4 (protein)
parent chain: MLLAVLYCLLWSFQTSAGHFPRACVSSKNLMEKECCPPWSGDRSPCGQLSGRGSCQNILLSNAPLGPQFPFTGVDDRESWPSVFYNRTCQCSGNFMGFNCGNCKFGFWGPNCTERRLLVRRNIFDLSAPEKDKFFAYLTLAKHTISSDYVIPIGTYGQMKNGSTPMFNDINIYDLFVWMHYYVSMDALLGGSEIWRDIDFAHEAPAFLPWHRLFLLRWEQEIQKLTGDENFTIPYWDWRDAEKCDICTDEYMGGQHPTNPNLLSPASFFSSWQIVCSRLEEYNSHQSLCNGTPEGPLRRNPGNHDKSRTPRLPSSADVEFCLSLTQYESGSMDKAANFSFRNTLEGFASPLTGIADASQSSMHNALHIYMNGTMSQVQGSANDPIFLLHHAFVDSIFEQWLRRHRPLQEVYPEANAPIGHNRESYMVPFIPLYRNGDFFISSKDLGYDYSYLQDSDPDSFQDYIKSYLEQASRIWSWLLGAAMVGAVLTALLAGLVSLLCRHKRKQLPEEKQPLLMEKEDYHSLYQSHL
B7: human tyrosinase: Δ1 (protein)
parent chain: MLLAVLYCLLWSFQTSAGHFPRACVSSKNLMEKECCPPWSGDRSPCGQLSGRGSCQNILLSNAPLGPQFPFTGVDDRESWPSVFYNRTCQCSGNFMGFNCGNCKFGFWGPNCTERRLLVRRNIFDLSAPEKDKFFAYLTLAKHTISSDYVIPIGTYGQMKNGSTPMFNDINIYDLFVWMHYYVSMDALLGGSEIWRDIDFAHEAPAFLPWHRLFLLRWEQEIQKLTGDENFTIPYWDWRDAEKCDICTDEYMGGQHPTNPNLLSPASFFSSWQIVCSRLEEYNSHQSLCNGTPEGPLRRNPGNHDKSRTPRLPSSADVEFCLSLTQYESGSMDKAANFSFRNTLEGFASPLTGIADASQSSMHNALHIYMNGTMSQVQGSANDPIFLLHHAFVDSIFEQWLRRHRPLQEVYPEANAPIGHNRESYMVPFIPLYRNGDFFISSKDLGYDYSYLQDSDPDSFQDYIKSYLEQASRIWSWLLGAAMVGAVLTALLAGLVSLLCRHKRKQLPEEKQPLLMEKEDYHSLYQSHL
B8: human tyrosinase: kifunensine (protein)
parent chain: MLLAVLYCLLWSFQTSAGHFPRACVSSKNLMEKECCPPWSGDRSPCGQLSGRGSCQNILLSNAPLGPQFPFTGVDDRESWPSVFYNRTCQCSGNFMGFNCGNCKFGFWGPNCTERRLLVRRNIFDLSAPEKDKFFAYLTLAKHTISSDYVIPIGTYGQMKNGSTPMFNDINIYDLFVWMHYYVSMDALLGGSEIWRDIDFAHEAPAFLPWHRLFLLRWEQEIQKLTGDENFTIPYWDWRDAEKCDICTDEYMGGQHPTNPNLLSPASFFSSWQIVCSRLEEYNSHQSLCNGTPEGPLRRNPGNHDKSRTPRLPSSADVEFCLSLTQYESGSMDKAANFSFRNTLEGFASPLTGIADASQSSMHNALHIYMNGTMSQVQGSANDPIFLLHHAFVDSIFEQWLRRHRPLQEVYPEANAPIGHNRESYMVPFIPLYRNGDFFISSKDLGYDYSYLQDSDPDSFQDYIKSYLEQASRIWSWLLGAAMVGAVLTALLAGLVSLLCRHKRKQLPEEKQPLLMEKEDYHSLYQSHL
B9: human tyrosinase: Δ(5,6,7) (protein)
parent chain: MLLAVLYCLLWSFQTSAGHFPRACVSSKNLMEKECCPPWSGDRSPCGQLSGRGSCQNILLSNAPLGPQFPFTGVDDRESWPSVFYNRTCQCSGNFMGFNCGNCKFGFWGPNCTERRLLVRRNIFDLSAPEKDKFFAYLTLAKHTISSDYVIPIGTYGQMKNGSTPMFNDINIYDLFVWMHYYVSMDALLGGSEIWRDIDFAHEAPAFLPWHRLFLLRWEQEIQKLTGDENFTIPYWDWRDAEKCDICTDEYMGGQHPTNPNLLSPASFFSSWQIVCSRLEEYNSHQSLCNGTPEGPLRRNPGNHDKSRTPRLPSSADVEFCLSLTQYESGSMDKAANFSFRNTLEGFASPLTGIADASQSSMHNALHIYMNGTMSQVQGSANDPIFLLHHAFVDSIFEQWLRRHRPLQEVYPEANAPIGHNRESYMVPFIPLYRNGDFFISSKDLGYDYSYLQDSDPDSFQDYIKSYLEQASRIWSWLLGAAMVGAVLTALLAGLVSLLCRHKRKQLPEEKQPLLMEKEDYHSLYQSHL

Columns and labels:
[1] = immunofluorescence co-localisation with ER marker calnexin; conditions: glycan lost; control: wild type
[2] = Endo H resistance (ER exit), immunoblot; conditions: glycan lost; control: wild type
[3] = DOPA oxidase specific activity, cells at 37°C; conditions: glycan lost; control: wild type
[4] = immunofluorescence co-localisation with ERGIC-53, nocodazole-treated cells; conditions: glycan lost; control: wild type
[5] = DOPA oxidase recovery after culture at 31°C; conditions: glycan lost; control: wild type
[6] = pulse-chase, DTT accessibility of disulfides, non-reducing SDS-PAGE; conditions: glycan lost; control: wild type
[7] = pulse-chase IP with or without kifunensine; conditions: glycan lost; control: wild type (accumulates with kifunensine)
[8] = pulse-chase IP of wild type, degradation; conditions: glycan changed form; control: untreated

Row | Protein | localisation_or_trafficking [1] | localisation_or_trafficking [2] | enzymatic_activity, percent_of_wt [3] | localisation_or_trafficking [4] | stability_or_folding [5] | stability_or_folding [6] | other: kifunensine rescue from degradation [7] | degradation_or_half_life [8]
1 | B1 | changes | abolishes | decreases, The remaining mutants show intermediate activity, ranging from 25% to 30% | no change | decreases |  |  | 
2 | B2 | changes | abolishes | decreases, The remaining mutants show intermediate activity, ranging from 25% to 30% | no change | decreases |  |  | 
3 | B3 | changes | abolishes | abolishes | no change | decreases |  |  | 
4 | B4 | changes | abolishes | abolishes | no change | abolishes | decreases | no change | 
5 | B5 |  |  |  |  |  |  | abolishes | 
6 | B6 | changes | abolishes | decreases, The remaining mutants show intermediate activity, ranging from 25% to 30% | no change | decreases |  |  | 
7 | B7 | changes | decreases | decreases, The remaining mutants show intermediate activity, ranging from 25% to 30% | no change | decreases |  |  | 
8 | B8 |  |  |  |  |  |  |  | increases
9 | B9 |  |  |  |  |  |  | decreases | 
